We go through eleven molecules from patent publication US20230331862A1 (SHANGHAI GENBASE BIOTECHNOLOGY, published 2023).

T1: CEACAM5 (CD66e) on tumour cells (human, UniProt P06731 35-685, glycosylated (natural, as on tumour cells))
T1 construct: whole, on cells; One molecule for CEACAM5 on all three cell lines; the cell line is named under assay; also called natural CEACAM5 antigen; Lovo cells
T1 sequence (looked up): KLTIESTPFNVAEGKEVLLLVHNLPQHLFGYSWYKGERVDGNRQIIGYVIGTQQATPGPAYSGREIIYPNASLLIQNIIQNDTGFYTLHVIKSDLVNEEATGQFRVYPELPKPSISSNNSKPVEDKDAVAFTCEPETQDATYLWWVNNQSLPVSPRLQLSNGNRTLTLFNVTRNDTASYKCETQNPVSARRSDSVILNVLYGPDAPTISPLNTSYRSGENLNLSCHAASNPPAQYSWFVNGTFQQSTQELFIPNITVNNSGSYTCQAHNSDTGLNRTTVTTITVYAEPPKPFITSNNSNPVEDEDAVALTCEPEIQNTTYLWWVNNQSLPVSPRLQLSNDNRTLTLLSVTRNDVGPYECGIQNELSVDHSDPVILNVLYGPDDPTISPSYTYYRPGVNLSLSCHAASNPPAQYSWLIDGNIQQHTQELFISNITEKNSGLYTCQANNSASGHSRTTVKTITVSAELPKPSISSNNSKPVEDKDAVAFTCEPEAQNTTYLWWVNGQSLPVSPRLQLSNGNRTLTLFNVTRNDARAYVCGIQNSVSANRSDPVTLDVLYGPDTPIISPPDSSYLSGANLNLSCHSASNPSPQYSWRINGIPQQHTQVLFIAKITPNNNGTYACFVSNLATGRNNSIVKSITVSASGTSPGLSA

T2: recombinant CEACAM5 antigen (Sinobiological, 11077-H08H) (UniProt P06731 35-685)
T2 construct: Bought protein; also called CEACAM5-His recombinant protein; CEACAM5-His antigen; not shown: His tag
T2 sequence (looked up): T1 sequence (looked up)

B1: Humanized antibody hAb-013 (antibody, V domains shown)
VH: EVQLVESGGGLVQPGGSLRLSCAASGFTFTDYYMDWVRQAPGKALEWVGFTRNKVNGDTTEYAASVKGRFTISRDDSKNSLYLQMNSLKTEDTAVYYCARDKGIAYYFDYWGQGTLVTVSS
VL: QIVLTQSPATLSASPGERATLSCRASSSVSYIHWYQQKPGQSPRPLIYGTSNLASGVPARFSGSGSGTDFTLTISSLEPEDAAVYYCQQWSSNLSTFGGGTKVEIK
notes: also called hM19-11
B2: Humanized antibody hAb-006 (antibody, V domains shown)
VH: B1 VH with D35N, A44G, V48L, T51I, A63S, D76I
VL: DIVLSQSPGTLSLSPGERATLSCRASSSVSYIHWYQQKPGQAPRPWIHGTSNLASGIPDRFSGSGSGTDYTLTISRLEPEDFAVYYCQQWSSNLSTFGGGTKVEIK
notes: also called hM19-4
B3: Humanized antibody hAb-005 (antibody, V domains shown)
VH: B1 VH with Y33T, D35S, T51I, A63S, A64D, K67E, D76N, S80T, K89R, T90A
VL: DIQLTQSPSSLSASVGDRVTITCRASSSVSYIHWYQQKPGKSPKPWIYGTSNLASGVPSRFSGSGSGTDYTLTISSLQPEDAATYYCQQWSSNLSTFGQGTKVEIK
notes: also called hM19-3
B4: Humanized antibody hAb-017 (antibody, V domains shown)
VH: B1 VH
VL: B1 VL with Q1E, T50A
notes: also called hM19-15
B5: Humanized antibody hAb-016 (antibody, V domains shown)
VH: B1 VH
VL: B1 VL with Q1E, A9G, A59D, S76R
notes: also called hM19-14
B6: Humanized antibody hAb-009 (antibody, V domains shown)
VH: B1 VH with D35N, V48L, T51I
VL: B1 VL with Q1E, S27Q, L46W, Y48H, S55T
notes: also called hM19-7
B7: Humanized antibody hAb-003 (antibody, V domains shown)
VH: B1 VH with Y33F, D35N, F50Q, T51M, A64E, K67E
VL: B3 VL with L4M, W46L, Y70F, V103L
notes: also called hM19-1
B8: Humanized antibody hAb-010 (antibody, V domains shown)
VH: B1 VH with T51I
VL: B1 VL with Q1E, L53R, S55T
notes: also called hM19-8
B9: M18 (7G1), mouse hybridoma antibody (antibody, V domains shown)
VH: QIQLVQSGPELKKPGETVKISCKASGYTFTTYGMTWVKQAPGKGLKWMGWINTYSGVPTYIDDFKGRFAFSLETSASTAYLQINNLKNEDTATYFCGRKDLLGFMDYWGQGTSVTVSS
VL: DIQMTQSPSSLSASLGGKVTITCKTSQDINKFMAWYQHKPGKGPRLLIRYTSTLQPGIPSRFSGSGSGRDYSFSIRNLEPEDIATYYCLQYDDLTWTFGGGTKLEI
notes: Hybridoma supernatant, detected with anti-mouse Fc
B10: M7 (11B6), mouse hybridoma antibody (antibody, V domains shown)
VH: EVQLQQSGAELVRPGASVKLSCTVSGFNIKDDYMHWVKQRPEQGLEWIGWIDPENGDTEYASKFQGKATITADTSSNSAYLQLSSLTSEDTAVYYCTFIYYVNPHYYAMDYWGQGTSVTVSS
VL: QIVLTQSPAIMSASPGEKVTITCSATSSVSYMHWFQQKPGTSPKLWIYSTSNLASGVPARFSGSGSGTSYSLTISRVEAEDAATYYCQQRSSYPLTFGAGTKLELK
notes: as for B9
B11: M17 (6A8), mouse hybridoma antibody (antibody, V domains shown)
VH: EVQLQQSGAELVRPGASVKLSCTASGFNIKDDYMHWVKQRPEQGLEWIGWIDPENGDTEYASKFQGKATITADTSSNTAYLLLSSLTSEDTAVYYCTTIYYYGSRGAMDYWGQGTSVTVSS
VL: B10 VL with T26S, S49T, N52T, S71F, V77M, Q88H
notes: as for B9

Where a chain is given by its changes, count along the chain named.

For the first test, the target named is T1, CEACAM5 (CD66e) on tumour cells. Briefly: flow cytometry on KATO3 cells, anti-human IgG Fc-APC. As to the method:
KATO3 cells (high expression of CEACAM5) were cultured in RPMI1640 medium containing 10% FBS. After the cells were digested with TrypLE trypsin, they were centrifuged and resuspended in DPBS solution containing 2% BSA (FACS buffer, 4° C.), and added to a U-bottom 96-well plate, 5×10⁵/100 μl/well, the antibody diluted in concentration gradient was added, incubated at 4° C. for 1 hour, the supernatant was discarded after centrifugation; 100 μl of solution containing anti-human IgG Fc-APC secondary antibody was added to each well and incubated at 4° C. for 1 hour, then washing was performed with FACS buffer once, resuspending was performed in 200 μl of FACS buffer, and the fluorescence signal value was read on BD C6 plus.
In general terms: In flow cytometry, cells or beads pass a laser one at a time.
A word on the EC50: it is the concentration giving half of the maximal effect. By Emax is commonly meant the maximal effect, on the per cent scale that the assay sets. In turn, B1 gave an EC50 of 12.7 µg/mL and an Emax of 49.3%.

In the case of B2, the response was half-maximal at 5.7 µg/mL (EC50) and the Emax amounted to 118%.

B3 displayed an EC50 of 3250 µg/mL and an Emax of 9.1%.

As to B4, it took 2.2 µg/mL to reach a half-maximal effect (EC50) and the Emax was determined as 57.7%.

For B5, it took 3.2 µg/mL to reach a half-maximal effect (EC50) and the Emax turned out to be 48.4%.

Turning to B6, a half-maximal response (EC50) required 1.8 µg/mL and the Emax was 109%.

As to B7, the EC50 stood at 2.7 µg/mL and the Emax worked out at 85.1%.

As to B8, the EC50 worked out at 1.3 µg/mL and the Emax amounted to 60.6%.

The target of another test is T2, recombinant CEACAM5 antigen …. The test is described as follows: ELISA, coated recombinant CEACAM5-His 1 µg/ml, anti-human IgG Fc-HRP. On the procedure:
Recombinant CEACAM5 antigen (Sinobiological, 11077-H08H) was diluted to 1 μg/ml with DPB S solution, add into a 96-well plate, 100 μl per well, and coated overnight at 2-8° C.; the coating solution was discarded, washing was performed twice with PBS solution, PBS solution containing 2% BSA was added, and blocking was performed at room temperature for 2 hours; the blocking solution was discarded, the humanized antibody diluted in concentration gradient was added, and incubated at 37° C. for 1 hour; the antibody solution was discarded, and washing was performed for 4 times with PBS solution containing 0.05% Tween 20 (PBST solution); the anti-human IgG Fc-HRP secondary antibody was added and incubated at 37° C. for 30 minutes; washing was performed for 4 times with PBST solution, TMB chromogenic substrate was added, and color development was carried out for 5-10 minutes, then the reaction was terminated by adding equal volume of 1M H₂SO₄; the absorbance at 450 nm was read on a microplate reader.
Background: ELISA stands for enzyme-linked immunosorbent assay.
Consider B1, for which the EC50 was found to be 6.1 µg/mL.

As for B2, the concentration giving a half-maximal response (EC50) worked out at 3.11 µg/mL.

On to B3, for which the binding result is recorded as “no binding”.

On to B4, for which the EC50 is 7.05 µg/mL.

Regarding B5, the EC50 is 4.32 µg/mL.

B6: the EC50 came to 2.87 µg/mL.

As for B7, the EC50 worked out at 3.69 µg/mL.

Regarding B8, the EC50 was 3.56 µg/mL.

The target of a further test is T1, CEACAM5 (CD66e) on tumour cells. The test is described as follows: hybridoma supernatant on Lovo cells, anti-mouse Fc-FITC, Celigo imaging. As to the method: Lovo cells and Lovo CEA KO cells were inoculated in 96-well plates, 10⁴ per well, and cultured overnight, 1-10 μl of hybridoma supernatant was added to Lovo/Lovo CEA KO cell culture plates, incubated for 1 hour, the supernatant was discarded, anti-mouse Fc-FITC fluorescent secondary antibody was added, incubated for 1 hour, the supernatant was discarded, DPBS solution containing 2% BSA was added, the fluorescent signals and FITC staining areas were read and analyzed in Celigo.
Turning to B9, the Lovo binding percentage came to 89.5%.

On to B10, for which the Lovo binding percentage was determined as 54.6%.

In turn, B11 had a Lovo binding percentage of 34.7%.

For a further test the target is unchanged. The test is described as follows: competition by flow cytometry on KATO3 cells; competitor mouse M19 (m2F4) at 1 µg/ml, detected with anti-mouse IgG Fc-APC. As to the method:
KATO3 cells (high expression of CEACAM5) were cultured in RPMI1640 medium containing 10% FBS. After the cells were digested with TrypLE trypsin, they were centrifuged and resuspended in DPB S solution containing 2% BSA (FACS buffer, 4° C.), and added a U-bottom 96-well plate, 5×10⁵/100 μl/well, the mouse monoclonal antibody M19 antibody (m2F4) was added to 1 μg/ml and the humanized antibody diluted in gradient (50 μg/ml, 3-fold dilution) was added, then incubated at 4° C. for 1 hour, the supernatant was discarded after centrifugation; 100 μl of solution containing anti-mouse IgG Fc-APC secondary antibody was added to each well and incubated at 4° C. for 1 hour, washing was performed once with FACS buffer, resuspending was performed in 200 μl FACS buffer, and the fluorescence signal value was read on BD C6 plus.
Broadly, the IC50 is the point on the concentration scale where inhibition reaches its midpoint. A higher IC50 goes with weaker potency in that assay. For B1, the “Emax Inhibition, %” value turned out to be 89% and the IC50 came out at 5.2 µg/mL.

Turning to B2, the “Emax Inhibition, %” value was 47.2% and the IC50 was determined as 6.9 µg/mL.

In the case of B4, the “Emax Inhibition, %” value came out at 73.9% and the IC50 was 4.5 µg/mL.

Consider B5, for which the “Emax Inhibition, %” value was 73.2% and the IC50 came to 6.4 µg/mL.

B6: the “Emax Inhibition, %” value is 62.7% and the half-inhibitory concentration (IC50) worked out at 2.7 µg/mL.

In the case of B7, the “Emax Inhibition, %” value was found to be 51.3% and the IC50 was found to be 3.9 µg/mL.

Take B8: the “Emax Inhibition, %” value stood at 75% and the IC50 stood at 2.3 µg/mL.
